The source of these data is publication doi:10.1101/2025.02.14.638310 (bioRxiv, 2025).

The target in test [1] is T1, Pfs230 fused C-terminally with a 3xFLAG-C-tag (endogenous, parasite line iGP2^230-tag) (Plasmodium falciparum (endogenous in …, UniProt P68874)).
T1 construct: not shown: 3xFLAG, C-terminal, kept
Put plainly: native gel or EMSA. The conditions noted are these: both partners purified.

The target in test [2] is T2, Pfs230 fused C-terminally with a 3xFLAG-C-tag (endogenous, parasite line iGP2^230-tag) (Plasmodium falciparum (endogenous in …, UniProt P68874 21-3135)).
T2 construct: not shown: 3xFLAG, C-terminal, kept
Briefly: affinity purification with mass spectrometry. As to conditions: partners not purified.

The target in test [3] is T3, Pfs230:Pfs48/45 complex (endogenous, FLAG-tag purified) (Plasmodium falciparum (isolate 3D7)., UniProt P68874;Q8I6T1).
T3 construct: not shown: 3xFLAG, C-terminal, kept
Briefly: native gel or EMSA. The conditions noted are these: both partners purified. On the technique in general: A gel shift assay detects complexes by their altered migration in electrophoresis.

Test [4] has as its target T4, Pfs230D7 (recombinant, WT) (Plasmodium falciparum 3D7, UniProt P68874).
T4 construct: source: wheat germ cell-free extract WEPRO7240H with Disulfide Bond Enhancer Enzyme Set, purified (Ni Sepharose 6 Fast Flow)
Briefly: SPR. As to conditions: both partners purified.

For another test, the target named is Pfs48/45 (endogenous) (Plasmodium falciparum (endogenous in …, UniProt Q8I6T1)). Put plainly: cryo-EM structure. The conditions noted are these: both partners purified.

T1 sequence (P68874 21-3135): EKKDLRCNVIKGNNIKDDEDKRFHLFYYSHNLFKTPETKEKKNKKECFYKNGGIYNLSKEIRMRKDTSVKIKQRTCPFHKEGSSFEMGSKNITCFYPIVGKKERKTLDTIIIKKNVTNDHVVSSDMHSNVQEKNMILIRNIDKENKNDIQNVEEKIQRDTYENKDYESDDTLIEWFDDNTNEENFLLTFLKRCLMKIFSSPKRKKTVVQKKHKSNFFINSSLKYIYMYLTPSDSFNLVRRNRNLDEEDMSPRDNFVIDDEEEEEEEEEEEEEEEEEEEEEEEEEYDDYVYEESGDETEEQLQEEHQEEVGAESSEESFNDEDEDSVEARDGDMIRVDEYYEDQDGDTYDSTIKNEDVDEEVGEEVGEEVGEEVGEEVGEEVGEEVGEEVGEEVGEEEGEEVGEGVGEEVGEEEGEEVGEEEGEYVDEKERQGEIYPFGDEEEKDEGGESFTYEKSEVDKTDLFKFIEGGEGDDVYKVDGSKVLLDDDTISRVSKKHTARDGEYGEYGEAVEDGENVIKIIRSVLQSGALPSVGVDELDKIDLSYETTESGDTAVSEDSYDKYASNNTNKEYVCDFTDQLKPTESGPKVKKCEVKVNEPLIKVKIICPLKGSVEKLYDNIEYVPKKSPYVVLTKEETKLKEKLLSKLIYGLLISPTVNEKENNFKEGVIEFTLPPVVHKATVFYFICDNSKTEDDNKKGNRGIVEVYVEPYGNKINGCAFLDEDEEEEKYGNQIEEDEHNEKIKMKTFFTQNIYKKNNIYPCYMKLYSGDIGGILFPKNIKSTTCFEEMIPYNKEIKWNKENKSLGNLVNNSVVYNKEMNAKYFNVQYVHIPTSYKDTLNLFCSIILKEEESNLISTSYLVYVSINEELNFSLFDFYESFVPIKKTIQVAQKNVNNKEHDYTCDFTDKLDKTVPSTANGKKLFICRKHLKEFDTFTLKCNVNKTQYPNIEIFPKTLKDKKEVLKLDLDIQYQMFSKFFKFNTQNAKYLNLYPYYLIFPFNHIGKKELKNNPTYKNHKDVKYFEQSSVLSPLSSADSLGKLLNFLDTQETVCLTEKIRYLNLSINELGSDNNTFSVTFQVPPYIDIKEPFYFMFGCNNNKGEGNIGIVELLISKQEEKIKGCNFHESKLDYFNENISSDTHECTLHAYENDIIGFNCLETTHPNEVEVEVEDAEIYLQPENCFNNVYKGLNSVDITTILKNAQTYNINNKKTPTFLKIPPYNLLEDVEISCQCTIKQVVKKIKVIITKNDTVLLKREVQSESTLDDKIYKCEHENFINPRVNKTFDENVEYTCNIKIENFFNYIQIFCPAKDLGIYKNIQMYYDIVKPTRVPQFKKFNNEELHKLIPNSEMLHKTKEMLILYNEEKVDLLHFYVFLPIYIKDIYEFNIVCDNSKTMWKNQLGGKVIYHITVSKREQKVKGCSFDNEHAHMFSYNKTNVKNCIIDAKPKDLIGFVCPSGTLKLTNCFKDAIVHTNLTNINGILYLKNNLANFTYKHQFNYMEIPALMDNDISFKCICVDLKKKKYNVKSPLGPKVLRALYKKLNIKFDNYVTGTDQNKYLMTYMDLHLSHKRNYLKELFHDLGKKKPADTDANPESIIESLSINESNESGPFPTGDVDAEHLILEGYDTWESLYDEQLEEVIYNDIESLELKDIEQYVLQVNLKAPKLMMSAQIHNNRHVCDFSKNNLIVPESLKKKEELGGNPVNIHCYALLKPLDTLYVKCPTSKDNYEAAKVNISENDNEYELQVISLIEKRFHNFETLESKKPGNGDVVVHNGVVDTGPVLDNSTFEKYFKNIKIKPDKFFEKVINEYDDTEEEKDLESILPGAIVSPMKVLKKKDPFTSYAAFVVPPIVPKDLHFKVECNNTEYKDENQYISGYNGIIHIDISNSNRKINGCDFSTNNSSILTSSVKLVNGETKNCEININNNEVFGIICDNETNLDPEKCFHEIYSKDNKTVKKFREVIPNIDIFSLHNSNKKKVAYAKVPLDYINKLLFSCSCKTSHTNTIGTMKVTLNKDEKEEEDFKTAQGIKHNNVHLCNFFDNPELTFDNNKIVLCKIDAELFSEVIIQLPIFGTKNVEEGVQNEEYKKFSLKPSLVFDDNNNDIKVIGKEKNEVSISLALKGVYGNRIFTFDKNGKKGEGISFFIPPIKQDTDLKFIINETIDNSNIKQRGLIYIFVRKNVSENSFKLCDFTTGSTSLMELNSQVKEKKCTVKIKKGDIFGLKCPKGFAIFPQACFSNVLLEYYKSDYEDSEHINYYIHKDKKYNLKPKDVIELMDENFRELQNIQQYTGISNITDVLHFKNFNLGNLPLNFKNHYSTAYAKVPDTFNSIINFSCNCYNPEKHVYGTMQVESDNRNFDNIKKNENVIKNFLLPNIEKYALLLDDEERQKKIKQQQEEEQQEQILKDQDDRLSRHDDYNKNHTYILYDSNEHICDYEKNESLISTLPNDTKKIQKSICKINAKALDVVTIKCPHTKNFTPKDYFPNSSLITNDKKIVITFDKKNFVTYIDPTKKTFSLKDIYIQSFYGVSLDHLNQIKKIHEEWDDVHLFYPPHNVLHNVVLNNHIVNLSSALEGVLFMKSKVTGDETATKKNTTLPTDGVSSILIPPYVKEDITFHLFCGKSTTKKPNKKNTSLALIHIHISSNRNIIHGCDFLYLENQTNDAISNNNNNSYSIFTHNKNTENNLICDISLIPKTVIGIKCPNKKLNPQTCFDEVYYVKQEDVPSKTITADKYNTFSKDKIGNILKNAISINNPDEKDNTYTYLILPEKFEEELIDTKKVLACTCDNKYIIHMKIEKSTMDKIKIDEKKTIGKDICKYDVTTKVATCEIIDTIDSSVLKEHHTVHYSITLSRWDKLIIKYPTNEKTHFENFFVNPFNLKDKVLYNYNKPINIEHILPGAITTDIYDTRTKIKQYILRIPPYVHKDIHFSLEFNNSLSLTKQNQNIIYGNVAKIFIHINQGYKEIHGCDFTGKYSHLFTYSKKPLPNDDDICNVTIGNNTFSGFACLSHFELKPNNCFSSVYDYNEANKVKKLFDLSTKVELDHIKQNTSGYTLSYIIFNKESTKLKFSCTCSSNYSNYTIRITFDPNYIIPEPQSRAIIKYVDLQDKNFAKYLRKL

B1: 2A2 Fab (Fab, V domains shown)
VH: EVQLQQSGPELEKPGASVKISCKASGYSITDYNMNWVKLSNGKSLEWIGNIDPSHGGTTYNQKFKGKATLTVDKSSSTAYMQLKSLTSEDSAVYHCARSTLYGNSAMDCWGQGTSVTVSS
VL: SIVMTQTPKFLLVPAGDRVTITCKASQSVNNDVTWYQQKPGQSPKLLIYYASNRYTGVPDRFTGSGYGTDFTFTISTVQAEDLAVYFCQQDYSSPLTFGAGTKLEL
notes: also called mAb 2A2; 2A2.2a; source: Freestyle 293-F or 293-S cells, transfected, purified (KappaSelect, MonoS cation exchange)
In the case of B1, the binding result in test [1] is “binds”.

B2: Pfs48/45 (endogenous) (natural protein)
chain: NNDFCKPSSLNSEISGFIGYKCNFSNEGVHNLKPDMRERRSIFCTIHSYFIYDKIRLIIPKKSSSPEFKILPEKCFQKVYTDYENRVETDISELGLIEYEIEENDTNPNYNERTITISPFSPKDIEFFCFCDNTEKVISSIEGRSAMVHVRVLKYPHNILFTNLTNDLFTYLPKTYNESNFVSNVLEVELNDGELFVLACELINKKCFQEGKEKALYKSNKIIYHKNLTIFKAPFYVTSKDVNTECTCKFKNNNYKIVLKPKYEKKVIHGCNFSSNVSSKHTFTDSLDISLVDDSAHISCNVHLSEPKYNHLVGLNCPGDIIPDCFFQVYQPESEELEPSNIVYLDSQINIGDIEYYEDAEGDDKIKLFGIVGSIPKTTSFTCICKKDKKSAYMTVTID
With B2, in test [2], the binding result is “binds”.

B3: RUPA-47 Fab (Fab, V domains shown)
VH: QVQLVQSGAEVKKPGASVKLSCTASGYTFTNFGITWVRQAPGQGLEWMAWISVYSGDTDYAQRFQGRVTMTTDTSTRTAYMEMRSLSFDDTAVYYCVRGGRDSPILGGYWGQGTLVTVSS
VL: EIVLTQSPGTLSLSPGERVTLSCRASQSVRSMYLAWYQQKPGQAPRLLIHGASIRATGIPDRFSGSGSGTDFTLTISRLEREDFAVYYCHQYGSSPLTFGGGTKVESK
notes: source: Freestyle 293-F or 293-S cells, transfected, purified (KappaSelect, MonoS cation exchange)
With B3, the binding result in test [1] is “no binding (tested: tenfold molar excess Fab)”; in test [3], “binds”.

B4: 18F25 Fab (Fab, V domains shown)
VH: QVQLQQSGAELARPGASVKLSCKASGYTFTNYWMQWVKQRPGQGLEWFGAIYPGDGDTRYTQKFKGKATLTADKSSSTAYMQLSSLASEDSAVYYCARSLYLGAMDYWGQGTSVTVSS
VL: DIVMTQSHKFMSTSVGDRVSITCKASQDVTNDVAWYQQKPGQSPKLLIYSASYRYTGVPDRFTGSGSGTDFIFTISSVQAEDLAVYYCQQHYSAPPTFGGGTKLEIK
notes: also called mAb 18F25; 18F25.1; source: Freestyle 293-F or 293-S cells, transfected, purified (KappaSelect, MonoS cation exchange)
Broadly, the Kd is the free concentration of one partner at which half of the binding sites on the other are occupied at equilibrium, for simple one-to-one binding. Turning to B4, the Kd in test [4] was 1.8 nM.

B5: RUPA-44 Fab (Fab, V domains shown)
VH: QLQLQESGPGLVKPSETLSLTCTVSGGSISRSPYYWGWIRQPPGKGLEWFGSIYNNGSTYYNPPLKSRLTISVDTSKNQFSLKLSSVTAADTAVYYCARHGGSTGMKVVVIAPPDYWGQGTLVTVSS
VL: DIQMTQSPATLSASVGDRVTITCRASQSISSWLAWYQQKPGEAPKLLIYKASSLQSGVPSRFSGSGSGTKFSLTISSLQPDDFATFYCQQYHSYPYTFGQGTKLEIK
notes: as for B3
For the molecule B5, the binding result with Pfs48/45 (endogenous) is listed as “binds”.

B6: RUPA-71 Fab (Fab, V domains shown)
VH: EEQLVESGGGLVKPGRSLRLSCSASGFTLGDYAVTWFRQASGKEPEWVGVIRTKDEGGTTEYAASVKGRFSILRDDSKSIAHLQMNSLKIEDTAVYYCTRNGLRWYDSSGPRGWAFDIWGPGTLVVVSS
VL: EIVMTQSPATVSVSPGERATLSCRTSQSVSNKLAWYQQKPGQAPRLLIYGASTRATGIPARFSGSGSGTQFTLTISSLQSEDFAVYYCQQYNNWPPWTFGRGTKVEIK
notes: as for B3
Regarding B6, the binding result (in test [3]; with Pfs48/45 (endogenous)) was “binds” in each case.
